Experimental data as given in publication PMC6138732.
Blank lines part the entries; values can stand above or below the substance they belong to.

Legend:
Assay in all cases: SEC; Protein A affinity, then S200 size exclusion to purify the hexamer fraction; analytical HPLC; hexamer counts Fc units
[1] = molecular target: IgG1 Fc hexamer (L309) (human)
[2] = molecular target: IgG1 Fc hexamer (L309C) (human)
[3] = molecular target: IgG4 Fc hexamer (L309) (human)
[4] = molecular target: IgG4 Fc hexamer (L309C) (human)

stoichiometry N [1]: 6
Substance: IgG1 Fc hexamer (L309)

stoichiometry N [2]: 6
Substance: IgG1 Fc hexamer (L309C)

stoichiometry N [3]: 6
Substance: IgG4 Fc hexamer (L309)

stoichiometry N [4]: 6
Substance: IgG4 Fc hexamer (L309C)
